{"source": "patent US11590206B2", "about": "“Liquid pharmaceutical composition” (SANOFI, priority 2017, dated 2023)", "format_in_all_cases": "physicochemical", "key": {"[1]": {"assay": "ThT assay: fibrillation tendency under thermal and mechanical stress", "protocol": "Investigations were carried out to determine fibrillation tendencies under stress conditions using a ThT assay. […] Amyloid-like structures show a beta-sheet rich structure. Fibrillation of peptide solutions is induced by thermic and mechanical stress. Samples are stressed under defined conditions using Fluoroskan Ascent FL.\nFor the tests in Fluoroskan Ascent FL 200 μL sample were placed into 96 well microtiterplate PS, flat bottom, Greiner Fluotrac No. 655076. Plates were sealed with Scotch Tape (Quiagen). […] The kinetic was monitored by measuring fluorescence intensity every 20 minutes.\nSolutions were transferred in 2 mL Eppendorf vials and 20 μL of a 10.1 mM ThT solution in H2O were added to 2 mL of peptide solution to receive a final concentration of 100 μM ThT. For each sample eight replicates were tested."}, "[2]": {"assay": "Small angle X-ray scattering (SAXS): oligomer size and shape", "details": "in the formulations", "protocol": "SAXS measurements were performed at a synchrotron light source (DESY Hamburg). The scattering data from all samples were collected loading 20 microliters of solutions into the capillary and flowing the whole volume across the X-ray beam. Per each sample 20 frames of 0.045 s exposure were collected and, after a statistical consistency check, averaged. The corresponding signals collected for the placebo was then subtracted. Each sample measurement was repeated at least twice to ensure reproducibility."}, "[3]": {"assay": "Rheology with rotation and capillary rheometer", "details": "Table 2 composition, 5.0 mg/ml; shear rates>1/s", "protocol": "To this end, a composition as described above in Table 2 containing 5.0 mg/ml SEQ ID NO.: 2 was added to a rheometer and subjected to measurement. The experiments were performed with a MCR rotation rheometer (Anton Paar) and with capillary rheometer Kinexus (Malvern). […] High shear rates have no influence on the shear viscosity of the formulation (see also FIG. 7)."}, "[4]": {"assay": "FTIR spectroscopy: ratio of alpha and beta sheets", "details": "5.0 mg/ml and 75 mg/mL named; phosphate buffer, m-cresol, sodium chloride (Table 2)", "protocol": "The physical and chemical stability of the stored formulations is determined with the help of the following tests: • Dynamic light scattering (DLS) method was applied to access the subvisible particle size distribution • Fourier transform infrared spectroscopy (FTIR) to analyze the ratio of alpha and beta sheets • Chemical stability (purity and impurities), determined by HPLC • Proteins of high molecular weight, determined by HPSEC\nFTIR spectroscopy is a suitable method for the determination of a protein's secondary structure. The vibration giving the most pronounced signal in FTIR spectroscopy is the C═O stretching vibration of amide groups resulting in a signal in the so-called amide I-region (1700-1600 cm^−1). This vibration is sensitive to the hydrogen-bonding pattern, dipole-dipole interactions and the geometry of the polypeptide backbone. […]\nAs a consequence, the individual component bands that represent the different structural elements, such as α-helices, β-sheets, turns and irregular structures are often not resolved and difficult to identify in the broad amide I-band contours of the experimentally obtained spectra. […] The absolute values for protein conformation determined by the chemometric method can therefore be systematically biased, however, the repeatability of results for samples of the same protein is usually in the range of +/−2%. […]"}}}
{"substance": "H-dSer-Q-G-T-F-T-S-D-L-S-K-Q-K(γE-x53)-ESKAAQDFIEWLKAGGPSSGAPPPS-NH2 (HXQGTFTSDLSKQKESKAAQDFIEWLKAGGPSSGAPPPS; D-Ser1, K14 gammaE-palmitoyl lipidation, C-terminal amide; Exendin-4 analogue; MOD_RES (2)..(2) Xaa is a D-Ser; MOD_RES (14)..(14) Lys is functionalized at the amino side chain group as Lys((S)-4-carboxy-4-hexadecanoylamino-butyryl); MOD_RES (39)..(39) Ser is modified with an NH2 group) [SEQ ID NO.: 2, γE-x53 is (S)-4-Carboxy-4-hexadecanoylamino-butyryl-]", "values": [{"measurement": "Fibrillation (ThT fluorescence)", "setting": "[1]; 1 mg/ml in PBS, 100 h incubation at +37° C. and 500 rpm", "value": "negligible fibrillation"}, {"measurement": "Fibrillation (ThT fluorescence)", "setting": "[1]; 5 mg/mL in phosphate buffer, NaCl and m-cresol, pH≈6.6, 100 hours at 37° C. shaking (500 rpm)", "value": "no fibrillation was observed"}, {"measurement": "Oligomeric state (best fit of SAXS curve)", "setting": "[2]", "value": "all hexameric"}, {"measurement": "fluid property (shear stress, viscosity vs shear rate)", "setting": "[3]", "value": "Newtonian fluid"}, {"measurement": "measured value of alpha sheets (FTIR)", "setting": "[4]", "value": 48.9, "unit": "%"}, {"measurement": "measured value of beta sheets (FTIR)", "setting": "[4]", "value": 13.1, "unit": "%"}]}
